Laboratory results taken from patent US20250218531A1 (ABSCI, published 2025).
Where a chain is given by its changes, count along the chain named. Values joined by “and” are separate entries in the source; they are usually repeats but may differ in a detail not shown here. Identical values can stand only once.

B1: Trastuzumab HCDR3 variant ARGGYYGYWYYFDY (Fab, V domains shown)
VH: EVQLVESGGGLVQPGGSLRLSCAASGFNIKDTYIHWVRQAPGKGLEWVARIYPTNGYTRYADSVKGRFTISADTSKNTAYLQMNSLRAEDTAVYYCARGGYYGYWYYFDYWGQGTLVTVSS
VL: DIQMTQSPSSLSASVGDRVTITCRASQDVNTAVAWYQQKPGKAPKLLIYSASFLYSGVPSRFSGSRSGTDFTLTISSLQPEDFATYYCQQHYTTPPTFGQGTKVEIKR
B2: Trastuzumab HCDR3 variant ARSHYGYYDYYTDF (Fab, V domains shown)
VH: B1 VH with G99S, G100H, Y102G, G103Y, W105D, F108T, Y110F
VL: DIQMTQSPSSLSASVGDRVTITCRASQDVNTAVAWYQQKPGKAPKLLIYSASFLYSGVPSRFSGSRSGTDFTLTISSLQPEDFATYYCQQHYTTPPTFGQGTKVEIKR
B3: Trastuzumab HCDR3 variant ARLAFDSVSFYSDY (Fab, V domains shown)
VH: B1 VH with G99L, G100A, Y101F, Y102D, G103S, Y104V, W105S, Y106F, F108S
VL: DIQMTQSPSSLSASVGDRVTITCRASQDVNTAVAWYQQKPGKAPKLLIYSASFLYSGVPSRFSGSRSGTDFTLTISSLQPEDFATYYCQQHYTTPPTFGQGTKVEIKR
B4: Trastuzumab HCDR3 variant ARYRGGYGGYVFDP (Fab, V domains shown)
VH: B1 VH with G99Y, G100R, Y101G, Y102G, G103Y, Y104G, W105G, Y107V, Y110P
VL: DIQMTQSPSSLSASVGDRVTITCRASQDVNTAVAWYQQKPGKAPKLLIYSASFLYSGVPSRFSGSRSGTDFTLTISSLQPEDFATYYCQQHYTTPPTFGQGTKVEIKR
B5: Trastuzumab HCDR3 variant VRGYGYNFYYHGFSY (Fab, V domains shown)
VH: EVQLVESGGGLVQPGGSLRLSCAASGFNIKDTYIHWVRQAPGKGLEWVARIYPTNGYTRYADSVKGRFTISADTSKNTAYLQMNSLRAEDTAVYYCVRGYGYNFYYHGFSYWGQGTLVTVSS
VL: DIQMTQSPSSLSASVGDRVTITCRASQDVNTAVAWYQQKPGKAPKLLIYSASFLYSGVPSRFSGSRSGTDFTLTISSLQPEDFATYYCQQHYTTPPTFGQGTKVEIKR
B6: Trastuzumab HCDR3 variant ARSGGHGVNGHWRSF (Fab, V domains shown)
VH: EVQLVESGGGLVQPGGSLRLSCAASGFNIKDTYIHWVRQAPGKGLEWVARIYPTNGYTRYADSVKGRFTISADTSKNTAYLQMNSLRAEDTAVYYCARSGGHGVNGHWRSFWGQGTLVTVSS
VL: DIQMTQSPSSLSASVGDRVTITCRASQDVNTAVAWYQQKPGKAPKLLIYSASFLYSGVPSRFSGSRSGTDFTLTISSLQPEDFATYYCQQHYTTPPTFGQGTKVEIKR
B7: Trastuzumab HCDR3 variant AYTGAPHGGYHYYAY (Fab, V domains shown)
VH: EVQLVESGGGLVQPGGSLRLSCAASGFNIKDTYIHWVRQAPGKGLEWVARIYPTNGYTRYADSVKGRFTISADTSKNTAYLQMNSLRAEDTAVYYCAYTGAPHGGYHYYAYWGQGTLVTVSS
VL: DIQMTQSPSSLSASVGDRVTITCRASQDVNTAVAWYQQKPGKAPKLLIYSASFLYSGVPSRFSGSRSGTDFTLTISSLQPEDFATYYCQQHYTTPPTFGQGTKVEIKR
B8: Trastuzumab HCDR3 variant ATWPHINTRIYAFDP (Fab, V domains shown)
VH: EVQLVESGGGLVQPGGSLRLSCAASGFNIKDTYIHWVRQAPGKGLEWVARIYPTNGYTRYADSVKGRFTISADTSKNTAYLQMNSLRAEDTAVYYCATWPHINTRIYAFDPWGQGTLVTVSS
VL: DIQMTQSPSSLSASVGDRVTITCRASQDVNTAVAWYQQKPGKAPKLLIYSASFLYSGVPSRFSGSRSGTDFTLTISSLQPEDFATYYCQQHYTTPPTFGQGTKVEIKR
B9: Trastuzumab HCDR3 variant ASYAGYSPFDY (Fab, V domains shown)
VH: EVQLVESGGGLVQPGGSLRLSCAASGFNIKDTYIHWVRQAPGKGLEWVARIYPTNGYTRYADSVKGRFTISADTSKNTAYLQMNSLRAEDTAVYYCASYAGYSPFDYWGQGTLVTVSS
VL: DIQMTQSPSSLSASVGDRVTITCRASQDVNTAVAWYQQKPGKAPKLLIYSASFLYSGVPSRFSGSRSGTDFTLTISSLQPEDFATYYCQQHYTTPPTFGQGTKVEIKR
B10: Trastuzumab HCDR3 variant ATGYSYLRYYD (Fab, V domains shown)
VH: B9 VH with S98T, Y99G, A100Y, G101S, S103L, P104R, F105Y, D106Y, Y107D
VL: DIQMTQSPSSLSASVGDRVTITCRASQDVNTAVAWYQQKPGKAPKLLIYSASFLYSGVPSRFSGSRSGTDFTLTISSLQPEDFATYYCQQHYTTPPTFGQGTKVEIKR
B11: Trastuzumab HCDR3 variant ATGYSYLRFYD (Fab, V domains shown)
VH: B9 VH with S98T, Y99G, A100Y, G101S, S103L, P104R, D106Y, Y107D
VL: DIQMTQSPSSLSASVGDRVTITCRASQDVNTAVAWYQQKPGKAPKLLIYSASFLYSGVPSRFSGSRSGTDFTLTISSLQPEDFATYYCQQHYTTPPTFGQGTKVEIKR
B12: Multi-step trastuzumab HCDR3 variant ARSGGSGYYYYDY (SEQ ID NO: 524) (Fab, V domains shown)
VH: EVQLVESGGGLVQPGGSLRLSCAASGFNIKDTYIHWVRQAPGKGLEWVARIYPTNGYTRYADSVKGRFTISADTSKNTAYLQMNSLRAEDTAVYYCARSGGSGYYYYDYWGQGTLVTVSS
VL: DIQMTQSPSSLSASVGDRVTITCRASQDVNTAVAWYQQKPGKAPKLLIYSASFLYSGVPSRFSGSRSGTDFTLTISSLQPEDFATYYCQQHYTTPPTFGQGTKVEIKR
B13: De novo trastuzumab HCDR1|2|3 variant GFNIKDYY / IYPSRGYT / ARHGSEGRYTMDV (Fab, V domains shown)
VH: B12 VH with T32Y, T54S, N55R, S99H, G101S, S102E, Y104R, Y106T, Y107M, Y109V
VL: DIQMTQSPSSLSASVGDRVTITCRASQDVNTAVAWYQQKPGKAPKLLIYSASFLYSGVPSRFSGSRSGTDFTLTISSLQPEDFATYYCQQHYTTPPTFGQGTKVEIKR
notes: also called AI Design 3
B14: Multi-step trastuzumab HCDR3 variant ARDGGRGRYAMDY (SEQ ID NO: 541) (Fab, V domains shown)
VH: B12 VH with S99D, S102R, Y104R, Y106A, Y107M
VL: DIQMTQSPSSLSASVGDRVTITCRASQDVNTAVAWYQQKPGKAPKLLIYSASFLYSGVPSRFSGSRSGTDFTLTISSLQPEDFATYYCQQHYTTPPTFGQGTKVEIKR
B15: De novo trastuzumab HCDR2|3 variant IYPEDGST / ARSGGSSTYAYDY (Fab, V domains shown)
VH: B12 VH with T54E, N55D, Y57S, G103S, Y104T, Y106A
VL: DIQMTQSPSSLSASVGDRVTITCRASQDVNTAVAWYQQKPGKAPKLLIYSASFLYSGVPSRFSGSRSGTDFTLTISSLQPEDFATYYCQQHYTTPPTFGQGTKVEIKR
B16: De novo trastuzumab HCDR2|3 variant IYSSDGYT / ARSGGSSYYYYDY (Fab, V domains shown)
VH: B12 VH with P53S, T54S, N55D, G103S
VL: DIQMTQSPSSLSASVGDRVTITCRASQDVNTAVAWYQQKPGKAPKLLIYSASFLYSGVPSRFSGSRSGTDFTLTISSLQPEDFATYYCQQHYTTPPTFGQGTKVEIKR
B17: Multi-step trastuzumab HCDR3 variant ARSGGSSYYYYDY (SEQ ID NO: 508) (Fab, V domains shown)
VH: B12 VH with G103S
VL: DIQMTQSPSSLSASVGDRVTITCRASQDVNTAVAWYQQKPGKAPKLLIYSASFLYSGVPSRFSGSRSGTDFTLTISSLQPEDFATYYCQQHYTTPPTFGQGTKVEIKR
B18: De novo trastuzumab HCDR2|3 variant IYPSNGYT / ARSGYYYSYSFDY (Fab, V domains shown)
VH: B12 VH with T54S, G101Y, S102Y, G103Y, Y104S, Y106S, Y107F
VL: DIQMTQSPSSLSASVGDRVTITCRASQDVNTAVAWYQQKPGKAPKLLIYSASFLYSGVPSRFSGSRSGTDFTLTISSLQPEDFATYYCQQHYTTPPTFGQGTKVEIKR
B19: Multi-step trastuzumab HCDR3 variant ARSRGSSSYMMDY (SEQ ID NO: 512) (Fab, V domains shown)
VH: B12 VH with G100R, G103S, Y104S, Y106M, Y107M
VL: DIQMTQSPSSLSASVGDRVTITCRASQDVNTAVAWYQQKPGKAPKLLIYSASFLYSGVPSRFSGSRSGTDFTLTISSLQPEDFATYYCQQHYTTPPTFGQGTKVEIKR
B20: De novo trastuzumab HCDR2|3 variant IYPSSGYT / ASSGGRYYYYYDY (Fab, V domains shown)
VH: B12 VH with T54S, N55S, R98S, S102R, G103Y
VL: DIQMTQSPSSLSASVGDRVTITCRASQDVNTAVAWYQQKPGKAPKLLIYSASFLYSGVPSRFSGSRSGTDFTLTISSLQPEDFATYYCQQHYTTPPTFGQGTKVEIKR
B21: De novo trastuzumab HCDR2|3 variant IYPSNGYT / ARYYGGSMYYYGY (Fab, V domains shown)
VH: B12 VH with T54S, S99Y, G100Y, S102G, G103S, Y104M, D108G
VL: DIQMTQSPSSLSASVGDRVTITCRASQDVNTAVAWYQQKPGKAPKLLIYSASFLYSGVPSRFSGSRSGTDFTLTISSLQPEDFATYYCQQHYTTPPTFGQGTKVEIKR
B22: Multi-step trastuzumab HCDR3 variant ARSGGGSYYYYDY (SEQ ID NO: 546) (Fab, V domains shown)
VH: B12 VH with S102G, G103S
VL: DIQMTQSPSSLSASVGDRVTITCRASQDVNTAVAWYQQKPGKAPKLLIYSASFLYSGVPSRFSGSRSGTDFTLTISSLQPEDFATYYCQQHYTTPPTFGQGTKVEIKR
B23: Multi-step trastuzumab HCDR3 variant ARSGGRYTYGFDY (SEQ ID NO: 551) (Fab, V domains shown)
VH: B12 VH with S102R, G103Y, Y104T, Y106G, Y107F
VL: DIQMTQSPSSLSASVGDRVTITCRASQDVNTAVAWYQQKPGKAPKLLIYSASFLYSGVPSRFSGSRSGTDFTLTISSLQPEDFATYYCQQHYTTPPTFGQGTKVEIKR
B24: Multi-step trastuzumab HCDR3 variant ARDGGGGFYAYDY (SEQ ID NO: 534) (Fab, V domains shown)
VH: B12 VH with S99D, S102G, Y104F, Y106A
VL: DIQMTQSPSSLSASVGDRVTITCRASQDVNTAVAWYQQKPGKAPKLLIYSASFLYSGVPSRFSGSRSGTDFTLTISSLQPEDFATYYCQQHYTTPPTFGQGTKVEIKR
B25: De novo trastuzumab HCDR2|3 variant IDPENGYT / ARVGGYGYYYYDY (Fab, V domains shown)
VH: B12 VH with Y52D, T54E, S99V, S102Y
VL: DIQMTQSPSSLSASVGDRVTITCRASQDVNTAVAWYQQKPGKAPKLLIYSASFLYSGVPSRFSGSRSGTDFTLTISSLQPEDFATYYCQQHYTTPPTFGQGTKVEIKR
B26: De novo trastuzumab HCDR2|3 variant IYPSNGYT / ARSSGYYSYSYDY (Fab, V domains shown)
VH: B12 VH with T54S, G100S, S102Y, G103Y, Y104S, Y106S
VL: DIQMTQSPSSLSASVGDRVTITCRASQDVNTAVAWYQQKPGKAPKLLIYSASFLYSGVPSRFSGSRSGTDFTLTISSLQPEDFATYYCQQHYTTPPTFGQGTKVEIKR
B27: Multi-step trastuzumab HCDR3 variant ARSGGYYTYGFDY (SEQ ID NO: 548) (Fab, V domains shown)
VH: B12 VH with S102Y, G103Y, Y104T, Y106G, Y107F
VL: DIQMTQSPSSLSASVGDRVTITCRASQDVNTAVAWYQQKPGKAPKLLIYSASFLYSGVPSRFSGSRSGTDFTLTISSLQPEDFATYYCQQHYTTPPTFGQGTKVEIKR
B28: Multi-step trastuzumab HCDR3 variant ARDGGRSYYSFYY (SEQ ID NO: 538) (Fab, V domains shown)
VH: B12 VH with S99D, S102R, G103S, Y106S, Y107F, D108Y
VL: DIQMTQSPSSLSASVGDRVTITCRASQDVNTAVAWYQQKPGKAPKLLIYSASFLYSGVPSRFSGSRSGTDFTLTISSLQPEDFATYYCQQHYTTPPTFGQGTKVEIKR
B29: De novo trastuzumab HCDR2|3 variant IYPANGYT / ASSGGGYSYYYTY (Fab, V domains shown)
VH: B12 VH with T54A, R98S, S102G, G103Y, Y104S, D108T
VL: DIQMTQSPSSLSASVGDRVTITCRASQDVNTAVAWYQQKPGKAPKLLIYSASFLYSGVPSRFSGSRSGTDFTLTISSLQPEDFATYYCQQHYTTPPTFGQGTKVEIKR
B30: De novo trastuzumab HCDR1|2|3 variant GFNISDYY / IYPSSGYT / ARDGGVGSYSMDV (Fab, V domains shown)
VH: B12 VH with K30S, T32Y, T54S, N55S, S99D, S102V, Y104S, Y106S, Y107M, Y109V
VL: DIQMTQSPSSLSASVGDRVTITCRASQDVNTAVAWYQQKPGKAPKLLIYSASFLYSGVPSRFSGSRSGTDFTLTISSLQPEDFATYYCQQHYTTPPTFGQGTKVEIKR
notes: also called AI Design 2
B31: Multi-step trastuzumab HCDR3 variant ARSGGSYSYSFDV (SEQ ID NO: 522) (Fab, V domains shown)
VH: B12 VH with G103Y, Y104S, Y106S, Y107F, Y109V
VL: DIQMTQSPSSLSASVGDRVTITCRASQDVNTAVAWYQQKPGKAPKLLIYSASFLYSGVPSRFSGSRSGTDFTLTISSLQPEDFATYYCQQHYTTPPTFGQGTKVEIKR
B32: Multi-step trastuzumab HCDR3 variant ARSTGSGFYSYDY (SEQ ID NO: 547) (Fab, V domains shown)
VH: B12 VH with G100T, Y104F, Y106S
VL: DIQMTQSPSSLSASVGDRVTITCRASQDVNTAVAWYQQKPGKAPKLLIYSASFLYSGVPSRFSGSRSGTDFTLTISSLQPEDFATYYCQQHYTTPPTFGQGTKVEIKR
B33: De novo trastuzumab HCDR2|3 variant IYPANGYT / AREGGVGYYSFAY (Fab, V domains shown)
VH: B12 VH with T54A, S99E, S102V, Y106S, Y107F, D108A
VL: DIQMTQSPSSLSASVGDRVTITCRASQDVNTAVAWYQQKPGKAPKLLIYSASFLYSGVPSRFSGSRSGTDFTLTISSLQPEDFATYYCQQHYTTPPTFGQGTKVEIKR
B34: De novo trastuzumab HCDR1|2|3 variant GFNIKDTW / IDPANGYT / ARVGGRGYYYYDY (Fab, V domains shown)
VH: B12 VH with Y33W, Y52D, T54A, S99V, S102R
VL: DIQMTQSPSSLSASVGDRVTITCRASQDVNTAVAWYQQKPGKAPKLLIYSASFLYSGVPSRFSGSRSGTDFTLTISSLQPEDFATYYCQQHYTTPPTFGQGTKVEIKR
notes: also called AI Design 4
B35: De novo trastuzumab HCDR2|3 variant IYPSNGYT / ARYRGSSSYYFDY (Fab, V domains shown)
VH: B12 VH with T54S, S99Y, G100R, G103S, Y104S, Y107F
VL: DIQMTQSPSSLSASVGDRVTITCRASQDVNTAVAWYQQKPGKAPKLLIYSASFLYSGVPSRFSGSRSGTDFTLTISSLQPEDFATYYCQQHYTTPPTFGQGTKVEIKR
B36: Multi-step trastuzumab HCDR3 variant ARSSGYYYYGFVY (SEQ ID NO: 540) (Fab, V domains shown)
VH: B12 VH with G100S, S102Y, G103Y, Y106G, Y107F, D108V
VL: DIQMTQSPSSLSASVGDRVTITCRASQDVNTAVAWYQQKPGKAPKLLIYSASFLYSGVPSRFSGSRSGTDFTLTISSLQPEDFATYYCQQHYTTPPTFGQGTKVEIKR
B37: Multi-step trastuzumab HCDR3 variant ARSGGYYHYGFVY (SEQ ID NO: 544) (Fab, V domains shown)
VH: B12 VH with S102Y, G103Y, Y104H, Y106G, Y107F, D108V
VL: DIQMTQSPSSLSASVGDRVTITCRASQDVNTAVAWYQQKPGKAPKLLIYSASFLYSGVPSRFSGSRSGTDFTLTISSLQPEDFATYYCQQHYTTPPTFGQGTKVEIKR
B38: De novo trastuzumab HCDR2|3 variant IYPANGYT / ASSGGSSSYYYNY (Fab, V domains shown)
VH: B12 VH with T54A, R98S, G103S, Y104S, D108N
VL: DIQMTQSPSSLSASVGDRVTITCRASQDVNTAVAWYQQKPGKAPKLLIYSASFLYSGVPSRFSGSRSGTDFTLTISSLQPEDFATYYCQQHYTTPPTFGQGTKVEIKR
B39: Multi-step trastuzumab HCDR3 variant ARDRGVSGYYLYY (SEQ ID NO: 516) (Fab, V domains shown)
VH: B12 VH with S99D, G100R, S102V, G103S, Y104G, Y107L, D108Y
VL: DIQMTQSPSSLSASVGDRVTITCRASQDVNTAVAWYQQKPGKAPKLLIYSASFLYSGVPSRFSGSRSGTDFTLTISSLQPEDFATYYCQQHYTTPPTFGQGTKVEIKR
B40: Multi-step trastuzumab HCDR3 variant ARDGGSSSYSYSY (SEQ ID NO: 535) (Fab, V domains shown)
VH: B12 VH with S99D, G103S, Y104S, Y106S, D108S
VL: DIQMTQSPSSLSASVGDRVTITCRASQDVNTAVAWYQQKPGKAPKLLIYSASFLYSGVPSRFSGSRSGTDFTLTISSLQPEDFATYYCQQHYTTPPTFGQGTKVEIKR
B41: Multi-step trastuzumab HCDR3 variant ARSSGSSYYGFDY (SEQ ID NO: 526) (Fab, V domains shown)
VH: B12 VH with G100S, G103S, Y106G, Y107F
VL: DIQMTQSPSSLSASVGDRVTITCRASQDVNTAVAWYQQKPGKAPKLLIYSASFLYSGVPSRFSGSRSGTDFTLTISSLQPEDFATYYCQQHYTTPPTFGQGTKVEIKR
B42: Multi-step trastuzumab HCDR3 variant ARSGGSGYYSYNY (SEQ ID NO: 523) (Fab, V domains shown)
VH: B12 VH with Y106S, D108N
VL: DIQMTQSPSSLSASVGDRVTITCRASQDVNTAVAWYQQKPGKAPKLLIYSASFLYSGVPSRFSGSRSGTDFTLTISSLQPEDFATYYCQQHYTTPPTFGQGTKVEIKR
B43: Multi-step trastuzumab HCDR3 variant ARSGGSSFYGMDY (SEQ ID NO: 519) (Fab, V domains shown)
VH: B12 VH with G103S, Y104F, Y106G, Y107M
VL: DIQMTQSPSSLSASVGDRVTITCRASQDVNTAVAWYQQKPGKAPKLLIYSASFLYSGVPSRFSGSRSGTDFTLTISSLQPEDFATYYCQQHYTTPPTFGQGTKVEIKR
B44: De novo trastuzumab HCDR2|3 variant IDPADGYT / AREGGYGYYAMDY (Fab, V domains shown)
VH: B12 VH with Y52D, T54A, N55D, S99E, S102Y, Y106A, Y107M
VL: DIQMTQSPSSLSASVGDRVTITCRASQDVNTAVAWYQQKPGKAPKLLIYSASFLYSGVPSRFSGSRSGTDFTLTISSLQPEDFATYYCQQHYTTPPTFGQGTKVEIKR
notes: also called AI Design 6
B45: De novo trastuzumab HCDR2|3 variant IDPANGYT / ARVGGRGYYYYDY (Fab, V domains shown)
VH: B12 VH with Y52D, T54A, S99V, S102R
VL: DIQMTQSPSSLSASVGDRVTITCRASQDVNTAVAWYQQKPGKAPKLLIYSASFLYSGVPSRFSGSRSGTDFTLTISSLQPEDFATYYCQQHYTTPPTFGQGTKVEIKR
notes: also called AI Design 7
B46: De novo trastuzumab HCDR1|2|3 variant GFNFKDTY / IYPANGYT / ASDGGSYSYAFDY (Fab, V domains shown)
VH: B12 VH with I29F, T54A, R98S, S99D, G103Y, Y104S, Y106A, Y107F
VL: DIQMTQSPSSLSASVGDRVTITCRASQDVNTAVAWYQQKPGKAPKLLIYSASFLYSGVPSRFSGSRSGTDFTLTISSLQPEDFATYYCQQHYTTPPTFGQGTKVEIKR
notes: also called AI Design 5
B47: Multi-step trastuzumab HCDR3 variant ARDGGGGVYAFTY (SEQ ID NO: 525) (Fab, V domains shown)
VH: B12 VH with S99D, S102G, Y104V, Y106A, Y107F, D108T
VL: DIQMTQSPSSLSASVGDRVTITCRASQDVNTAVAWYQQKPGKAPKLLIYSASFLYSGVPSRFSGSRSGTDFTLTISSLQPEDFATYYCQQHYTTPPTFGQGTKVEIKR
B48: De novo trastuzumab HCDR2|3 variant IYPSNGYT / ARYGGSYAYYFYY (Fab, V domains shown)
VH: B12 VH with T54S, S99Y, G103Y, Y104A, Y107F, D108Y
VL: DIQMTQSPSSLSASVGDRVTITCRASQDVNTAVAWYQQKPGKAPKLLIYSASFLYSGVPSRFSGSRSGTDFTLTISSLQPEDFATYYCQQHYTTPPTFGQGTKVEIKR
notes: also called AI Design 8

The binders below were run against human epidermal growth factor receptor 2 (HER2) extracellular domain (human, UniProt P04626 23-629) (assay: SPR).

Binder	Kd	log(KD (M))
B1	51.2 nM	-7.29 log(M)
B2	116 nM	-6.94 log(M)
B3	187 nM	-6.73 log(M)
B4	120 nM	-6.92 log(M)
B5	147 nM and 146 nM	-6.83 log(M)
B6	49.8 nM	-7.3 log(M)
B7	49.4 nM	-7.31 log(M)
B8	117 nM	-6.93 log(M)
B9	202 nM	-6.7 log(M)
B10	273 nM	-6.56 log(M)
B11	164 nM	-6.79 log(M)

These binders were tested against human epidermal growth factor receptor 2 (HER2) extracellular domain (human, UniProt P04626 23-629) (assay: SPR, Fab format).

Binder	Kd [nM]	log(KD (M)) [log M]
B12	1830	-5.74
B13	192	-6.72
B14	402	-6.4
B15	669	-6.17
B16	810	-6.09
B17	1070	-5.97
B18	348	-6.46
B19	566	-6.25
B20	591	-6.23
B21	109	-6.96
B22	308	-6.51
B23	1410	-5.85
B24	124	-6.91
B25	277	-6.56
B26	230	-6.64
B27	338	-6.47
B28	104	-6.98
B29	476	-6.32
B30	1320	-5.88

Binder	Kd [nM]	log(KD (M)) [log M]
B31	1070	-5.97
B32	330	-6.48
B33	213	-6.67
B34	394	-6.4
B35	907	-6.04
B36	157	-6.8
B37	228	-6.64
B38	554	-6.26
B39	567	-6.25
B40	146	-6.83
B41	668	-6.18
B42	603	-6.22
B43	680	-6.17
B44	160	-6.8
B45	134	-6.87
B46	642	-6.19
B47	364	-6.44
B48	18.6	-7.73
